Data reported in patent US20140120109A1 (Regeneron, published 2014).

T1: full length human TL1A expressed on HEK293 cells (human, UniProt O95150 1-251)
T1 construct: also called HEK293/hTL1A; cell-surface hTL1A
T1 sequence: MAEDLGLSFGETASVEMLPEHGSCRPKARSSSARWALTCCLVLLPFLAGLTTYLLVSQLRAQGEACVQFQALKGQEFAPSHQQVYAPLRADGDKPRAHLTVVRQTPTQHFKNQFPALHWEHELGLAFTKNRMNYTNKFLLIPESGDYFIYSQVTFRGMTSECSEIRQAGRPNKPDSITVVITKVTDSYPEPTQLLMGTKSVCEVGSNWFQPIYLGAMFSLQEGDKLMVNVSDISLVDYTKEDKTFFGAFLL

T2: cynomolgus monkey TL1A, soluble, CHO-expressed, residues 72-251 of SEQ ID NO:248 with N-terminal His6-tag (cynomolgus monkey (Macaca fascicularis), UniProt O95150 72-251 (human entry))
T2 construct: also called MfTL1A; MfTL1A (CHO)
T2 chain: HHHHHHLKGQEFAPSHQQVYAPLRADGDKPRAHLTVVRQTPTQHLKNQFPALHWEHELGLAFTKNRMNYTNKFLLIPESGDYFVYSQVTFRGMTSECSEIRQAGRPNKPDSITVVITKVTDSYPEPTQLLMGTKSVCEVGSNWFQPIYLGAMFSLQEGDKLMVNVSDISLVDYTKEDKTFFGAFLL

T3: human TL1A, soluble, CHO-expressed, residues 72-251 of SEQ ID NO:244 with N-terminal His6-tag (human, UniProt O95150 72-251)
T3 sequence: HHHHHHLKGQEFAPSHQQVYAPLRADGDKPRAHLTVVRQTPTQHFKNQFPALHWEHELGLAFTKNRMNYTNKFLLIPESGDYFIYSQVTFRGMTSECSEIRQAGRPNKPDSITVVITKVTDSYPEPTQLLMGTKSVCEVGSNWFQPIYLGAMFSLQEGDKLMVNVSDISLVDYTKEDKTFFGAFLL


Key:
[1] = biological target: T1, full length human TL1A expressed on …; experiment: flow, HEK293/hTL1A, mAb 1 ug/ml + 1 ug/ml soluble hTL1A
Procedure: (§1) Human embryonic kidney 293 cells stably transfected to over-express cell-surface hTL1A were first stained in a flow cytometric experiment with eight anti-hTL1A antibodies at four concentrations (1, 0.1, 0.01, and 0.003 μg/ml). […] The lowest antibody concentration providing significant staining levels was then used in a competition binding experiment. A negative isotype control antibody (human IgG4) was used at 1 μg/ml to define the background signal. For the competition experiment, eight antibody samples, at the minimal concentrations identified above, were first treated with soluble hTL1A expressed from CHO cells at concentrations ranging from 0.03 μg/ml to 10 μg/ml. After pre-incubation for 30 min on ice, the antibody/hTL1A mixture was added to 293/HEK-hTL1A cells that had been isolated by centrifugation in a 96-well conical plate. After incubation for an additional 10 minutes on ice, the cells were washed. The secondary reagent, anti-h Fcγ-APC F(ab′)₂, was added to all wells at a 200-fold dilution to detect bound antibodies. Samples were incubated for 15 minutes on ice, away from light, and then washed. Cells were processed on an BD™ LSR II Flow Cytometer (BD Biosciences) to detect anti-hTL1A antibodies bound to the cell surface, and data were analyzed using FlowJo software (version 8.8.6; Tree Star Inc.). Maximum signal: Anti-hTL1A antibody binding in the absence of soluble hTL1A; Minimum signal: Signal recorded when […] of isotype control antibody was added in place of the anti-hTL1A antibody. NT: Not tested.

[2] = biological target: T1, full length human TL1A expressed on …; experiment: flow, HEK293/hTL1A, mAb 1 ug/ml + 3 ug/ml soluble hTL1A
Procedure: as §1

[3] = biological target: T1, full length human TL1A expressed on …; experiment: flow, HEK293/hTL1A, mAb 1 ug/ml + 0.03 ug/ml soluble hTL1A
Procedure: as §1

[4] = biological target: T1, full length human TL1A expressed on …; experiment: flow, HEK293/hTL1A, mAb 1 ug/ml, no soluble hTL1A (maximum signal)
Procedure: as §1

[5] = biological target: T2, cynomolgus monkey TL1A, soluble, …; experiment: SPR 37C, mAb captured; kd set at 1e-6 1/s
Procedure: Measurements were conducted on a T100 BIACORE™ instrument. […] Kinetic association (kₐ) and dissociation (kd) rate constants were determined by fitting the data to a 1:1 binding model using BIAevaluation 4.1 curve fitting software (BIAcore Life Sciences). Molar concentrations of TL1A/Fhm used in the data fitting assumed a monomeric state for TL1A in solution. Binding dissociation equilibrium constants (KD) and dissociative half-lives (t_{1/2}) were calculated from the kinetic rate constants as: KD (M)=kd/kₐ; and t_{1/2} (min)=[In2/(60*kd)].

[6] = biological target: T1, full length human TL1A expressed on …; experiment: flow, HEK293/hTL1A, mAb 0.1 ug/ml + 0.3 ug/ml soluble hTL1A
Procedure: as §1

[7] = biological target: T1, full length human TL1A expressed on …; experiment: flow, HEK293/hTL1A, mAb 0.1 ug/ml, no soluble hTL1A (maximum signal)
Procedure: as §1

[8] = biological target: T3, human TL1A, soluble, CHO-expressed, …; experiment: cell-based or functional assay

Binder | MFI [6] | MFI [7] | % Blocking IFN-g, D1, 1 ug/ml mAb [8] [%] | % Blocking IFN-g, D1, 3 ug/ml mAb [8] [%] | % Blocking IFN-g, D2, 1 ug/ml mAb [8] [%] | % Blocking IFN-g, D2, 3 ug/ml mAb [8] [%] | % Blocking IFN-g, D3, 1 ug/ml mAb [8] [%] | % Blocking IFN-g, D3, 3 ug/ml mAb [8] [%] | % Blocking IFN-g, D4, 1 ug/ml mAb [8] [%] | % Blocking IFN-g, D4, 3 ug/ml mAb [8] [%] | % Blocking IFN-g, D5, 1 ug/ml mAb [8] [%] | % Blocking IFN-g, D5, 3 ug/ml mAb [8] [%] | % Blocking IFN-g, D6, 1 ug/ml mAb [8] [%] | % Blocking IFN-g, D6, 3 ug/ml mAb [8] [%] | % Blocking IFN-g, D7, 1 ug/ml mAb [8] [%] | % Blocking IFN-g, D7, 3 ug/ml mAb [8] [%] | % Blocking IFN-g, D8, 1 ug/ml mAb [8] [%] | % Blocking IFN-g, D8, 3 ug/ml mAb [8] [%] | % Blocking IFN-g, D9, 1 ug/ml mAb [8] [%] | % Blocking IFN-g, D9, 3 ug/ml mAb [8] [%] | other results
H4H1681N (antibody, human IgG4 S228P, V domains shown) VH: EVQLLESGGGLVQPGKSLRLSCAVSGFTFSTYGMNWVRQAPGKGLEWVSSISGTGRTTYHADSVQGRFTVSRDNSKNILYLQMNSLRADDTAVYFCTKERGDYYYGVFDYWGQGTLVTVSS VL: DIQMTQSPSTLSASVGDRVTITCRASQTISSWLAWYQQTPEKAPKLLIYAASNLQSGVPSRFSGSGSGTEFTLTISSLQPDDFATYYCQQYHRSWTFGQGTKVEIT |  |  |  |  |  |  |  |  |  |  |  |  |  |  |  |  |  |  |  |  | MFI [1]: 80.9; MFI [2]: 28.5; MFI [3]: 318; MFI [4]: 320
H4H1704N (antibody, human IgG4 S228P, V domains shown, human IgG4(S108P) form of H2M1704N) VH: EVQLVESGGGLVQPGGSLRLSCAVSGFTFSSYWMSWVRQAPGKGLEWVANIKEDGSEKNYVDSVKGRFTLSSDNAKNSLYLQMNSLRAEDTAVYYCAREDYDSYYKYGMDVWGQGTAVIVSS VL: not shown | 31.5 | 116 |  |  |  |  |  |  |  |  |  |  |  |  |  |  |  |  |  |  | Kd [5]: ≤ 0.93 pM; t1/2 [5]: ≥ 192 h
H4H1804N (antibody, human IgG4 S228P, V domains shown, human IgG4(S108P) form of H2M1804N) VH: QVQLHQWGAGLLKPSETLSLTCAVSGVSFSDYHWAWIRQSPGKGLEWIGDINHRGRTNYNPSLKSRVTISLDTSGNPFSLKLTSVTAADTAVYYCARDFPNWVFDSWGQGILVTVSS VL: EIVLSQSPGTLSLSPGERATLSCRASQSVSSSFLAWYQQYPGQAPRLLIYGASRRATGIPDRFRGSGSGTDFTLTISRLEPEDFAVYYCQQYGSSPLTFGGGTKVENK | 33.5 | 127 | 95 | 100 | 100 | 100 | 80 | 95 | 90 | 100 | 100 | 100 | 50 | 100 | 10 | 100 | 100 | 100 | 50 | 100 | % Blocking IFN-g, D10, 1 ug/ml mAb [8]: 0%; % Blocking IFN-g, D10, 3 ug/ml mAb [8]: 80%
H4H1805N (antibody, human IgG4 S228P, V domains shown, human IgG4(S108P) form of H2M1805N) VH: QVQLQQWGAGLLKPSETLSLTCAVYGGSFTGFYWSWIRQPPGKGLEWIGEINHRGNTNYNPSLKSRVTMSVDTSKNQFSLNMISVTAADTAMYFCASPFYDFWSGSDYWGQGTLVTVSS VL: DIMLTQTPLTSPVTLGQPASISCKSSQSLVHSDGNTYLSWLQQRPGQPPRLLFYKISNRFSGVPDRFSGSGAGTDFTLKISRVEAEDVGVYYCMQATQFPLTFGGGTKVEIK | 36.8 | 158 | 100 | 100 | 100 | 100 | 90 | 95 | 100 | 100 | 100 | 80 | 100 | 100 | 100 | 100 | 100 | 100 | 90 | 70 | % Blocking IFN-g, D10, 1 ug/ml mAb [8]: 100%; % Blocking IFN-g, D10, 3 ug/ml mAb [8]: 100%
H4H1818N (antibody, human IgG4 S228P, V domains shown, human IgG4(S108P) form of H2M1818N) VH: RLQLVESGGGLVKPGGSLKLSCAASGFTISDYYMSWIRQAPGKGLEWVSYIGGSGSTIYYADSVKGRFTISRDNAKNSLYLQMNSLRAEDTAVYYCAREDADSYYYYGMDVWGQGTTVTVSS VL: not shown |  |  |  |  |  |  |  |  |  |  |  |  |  |  |  |  |  |  |  |  | Kd [5]: ≤ 0.804 pM; t1/2 [5]: ≥ 192 h
H4H1725P (antibody, human IgG4 S228P, V domains shown) VH: QVQLVQSGAEVKKPGASVKVSCKASGYTFTGYYMHWVRQAPGQGLEWMGWIKPKSGGTNYVQKFQGRVTMTRDTSINTAYMELNNLKSDDTAVYYCATGGSQDASDFWGQGTMVTVSS VL: DIQMTQSPSSVSASVGGRVTITCRASQDISIWLAWYQQKPGKAPNLLIYAASSLQSGVPSRFSGSGSGTDFTLTISSLQPEDFATYYCQQADSFPLTFGGGTKVEIK | 40.7 | 211 | 90 | 95 | 100 | 100 | 70 | 95 | 85 | 100 | 45 | 90 | 80 | 80 | 60 | 90 | 85 | 100 | 50 | 90 | % Blocking IFN-g, D10, 1 ug/ml mAb [8]: 95%; % Blocking IFN-g, D10, 3 ug/ml mAb [8]: 100%
H4H1745P (antibody, human IgG4 S228P, V domains shown) VH: EVQLVESGGGLVQPGGSLRLSCAASGFTFSSYAMTWVRQAPGKGLEWVSGVSGRGGSTYYADSVKGRFTISRDNSKNTLYLQMNSLRAEDTAVYYCAYWDISSFDYWGQGTLVTVSS VL: DIQLTQSPSFLSASVGDRVTITCWASQGISTYLAWYQQKPGKTPKLLIYAASTLQSGVPSRFSGSGSGTDFTLTISSLQPEDFATYYCQQFNSYPLTFGGGTKVEIK |  |  |  |  |  |  |  |  |  |  |  |  |  |  |  |  |  |  |  |  | MFI [1]: 26.9; MFI [2]: 19.5; MFI [3]: 80; MFI [4]: 87.2
